Here are results for six molecules from patent US20260109763A1 (DENALI THERAPEUTICS, published 2026).

B1: human PILRA G78 extracellular domain (recombinant hPILRA ECD) (receptor)
chain: QPSGSTGSGPSYLYGVTQPKHLSASMGGSVEIPFSFYYPWELATAPDVRISWRRGHFHGQSFYSTRPPSIHKDYVNRLFLNWTEGQKSGFLRISNLQKQDQSVYFCRVELDTRSSGRQQWQSIEGTKLSITQAVTTTTQRPSSMTTTWRLSSTTTTTGLRVTQGKRRSDSWHISLETA
notes: also called hPILRA G78

The target in one test is T1, hPANP(76-178) (human, UniProt Q8IYJ0 76-178).
T1 construct: range 76-178; also called PIANP; PILRA-associated neural protein
T1 sequence (looked up): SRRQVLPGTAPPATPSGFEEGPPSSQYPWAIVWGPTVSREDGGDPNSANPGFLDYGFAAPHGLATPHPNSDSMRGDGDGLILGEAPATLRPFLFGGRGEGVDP
In words: SPR (Biacore 8K): ligand injected over hPILRA ECD (300 nM) held by an anti-PILRA antibody captured on anti-human Fab; panel Ligand binding permitted, antibody not named.

Another test addresses T2, hNPDC1(35-181) (human, UniProt Q9NQX5 35-181).
T2 construct: range 35-181; also called neural proliferation differentiation and control protein 1
T2 sequence (looked up): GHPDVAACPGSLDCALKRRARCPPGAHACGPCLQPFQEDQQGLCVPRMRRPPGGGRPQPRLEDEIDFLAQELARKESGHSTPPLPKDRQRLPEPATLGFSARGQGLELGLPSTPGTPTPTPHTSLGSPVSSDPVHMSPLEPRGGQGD
The description is as above.

Test [1] deals with T3, human PILRB extracellular domain (recombinant) (human, UniProt Q9UKJ0 20-191).
T3 construct: also called hPILRB
T3 sequence (Q9UKJ0 20-191 limits assumed): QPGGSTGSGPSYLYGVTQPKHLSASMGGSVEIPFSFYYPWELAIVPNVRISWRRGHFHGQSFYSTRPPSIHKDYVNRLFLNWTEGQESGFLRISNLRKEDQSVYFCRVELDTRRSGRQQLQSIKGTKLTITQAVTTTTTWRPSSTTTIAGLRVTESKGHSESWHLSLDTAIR
Kind of test: SPR. (In general: In SPR one partner is held on a chip, and binding of the other changes the refractive index at the surface.)

For test [2], the target named is B1. In words: SPR.
Test [3] has as its target T4, cynomolgus monkey PILRA extracellular domain (recombinant) (cynomolgus monkey).
T4 construct: also called cynoPILRA; Cyno PILRA
In words: SPR.

Test [4] concerns the target T5, human PILRA R78 extracellular domain (recombinant) (human, UniProt Q9UKJ1 20-197).
T5 construct: also called hPILRA R78
Kind of test: SPR.
Target sequence in this assay (Q9UKJ1 20-197 limits assumed): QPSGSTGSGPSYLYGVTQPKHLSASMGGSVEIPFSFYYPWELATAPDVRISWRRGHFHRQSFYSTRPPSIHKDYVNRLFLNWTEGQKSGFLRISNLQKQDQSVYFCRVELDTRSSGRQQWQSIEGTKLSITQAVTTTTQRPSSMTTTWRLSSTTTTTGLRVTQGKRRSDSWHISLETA

The target in test [5] is T6, human PILRA G78 on cells (human, UniProt Q9UKJ1 20-303).
T6 construct: wild-type iMicroglia are R78/G78 heterozygous (said in the assay field); also called hPILRA; hPILRA G78
Kind of test: flow cytometry on HEK293 cells expressing hPILRA G78. On the technique in general: A flow cytometer gives signals particle by particle.
Target sequence in this assay (Q9UKJ1 20-303 R78G limits assumed): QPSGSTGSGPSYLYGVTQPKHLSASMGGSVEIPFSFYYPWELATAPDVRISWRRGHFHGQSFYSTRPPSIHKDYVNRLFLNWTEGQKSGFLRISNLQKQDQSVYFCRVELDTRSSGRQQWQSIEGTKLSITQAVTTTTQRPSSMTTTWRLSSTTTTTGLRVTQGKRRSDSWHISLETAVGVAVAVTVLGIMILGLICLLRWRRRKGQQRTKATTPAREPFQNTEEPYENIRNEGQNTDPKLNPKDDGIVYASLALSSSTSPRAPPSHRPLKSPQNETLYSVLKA

Test [6] concerns the target T6, human PILRA G78 on cells. In words: flow cytometry on PILRA G78 expressing CHO-K1 cells (FIG. 1H).
Target sequence in this assay (Q9UKJ1 20-303 R78G limits assumed): as above
Experimental: (§1) PILRA G78 or R78 overexpressing HEK293 cells were stained with NucBlue Live cell stain for 30 mins at RT. […] Cell lines were run in duplicate to account for intra-variability, for a total of N=3. The same protocol was used for CHO-K1 cells expressing hPILRA G78.
Test [7] concerns the target B1. Kind of test: SPR, Biacore 8K; hPILRA ECD; antibody with wild-type Fc.
In test [8] the target is T6, human PILRA G78 on cells. In words: cell-based or functional assay.
Target sequence in this assay (Q9UKJ1 20-303 R78G limits assumed): as above
Test [9] has as its target T6, human PILRA G78 on cells. In words: flow cytometry on PILRA G78 expressing HEK293 cells (FIG. 1D); HEK293 cells expressing PILRA G78.
Experimental: as §1
Test [10] concerns the target T7, human PILRA R78 on cells (human, UniProt Q9UKJ1 20-303). In words: cell-based or functional assay.
Test [11] has as its target T7, human PILRA R78 on cells. In words: flow cytometry on PILRA R78 expressing HEK293 cells (FIG. 1F); HEK293 cells expressing PILRA R78.
Experimental: as §1
Test [12] concerns the target T6, human PILRA G78 on cells. In words: cell binding, HEK293 cells expressing hPILRA G78; antibody with modified Fc.
Target sequence in this assay (Q9UKJ1 20-303 R78G limits assumed): as above
Test [13] addresses T7, human PILRA R78 on cells. Kind of test: cell binding, HEK293 cells expressing hPILRA R78; antibody with modified Fc.
In test [14] the target is T3, human PILRB extracellular domain …. Kind of test: SPR. This is another data set of the same source.
Test [15] deals with B1. In words: SPR. This is another data set of the same source.
Test [16] has as its target T4, cynomolgus monkey PILRA extracellular …. In words: SPR. The source holds these as a separate data set.
Test [17] addresses T5, human PILRA R78 extracellular domain …. In words: SPR. The source holds these as a separate data set.
Target sequence in this assay (Q9UKJ1 20-197 limits assumed): as the sequence (Q9UKJ1 20-197 limits assumed) above
Test [18] has as its target T6, human PILRA G78 on cells. In words: flow cytometry on HEK293 PILRA G78 cells with sialidase treatment.
Experimental: (§2) PILRA 78G or PILRA 78R expressing HEK293 cells were treated with SialEXO (Genovis). […] It is a combination of two sialidases acting on α2-3, α2-6 and α2-8 linkages. […] Cells were then washed twice and incubated and stained with NucBlue Live Stain for 30 mins at RT.
Test [19] deals with T3, human PILRB extracellular domain …. In words: SPR, Biacore 8K; antibody captured via anti-human Fab, recombinant ECD injected; 1:1 fit.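 Note: CM5 sensor chip, ECD analyte in threefold dilution series at 30 µL/min, 3 min association and 10 min dissociation, kon and koff fitted simultaneously.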
Experimental: (§3) Antibodies were captured on Biacore™ Series S CM5 sensor chips immobilized with mouse anti-human Fab (human Fab capture kit from GE Healthcare) followed by injections of serial 3-fold dilutions of recombinant ECD reagents at a flow rate of 30 μL/min. Each sample was analyzed using a 3-minute association followed by a 10-minute dissociation. After each injection, the sensor chip was regenerated using a 5 0 mM glycine pH2.0 regeneration buffer. A 1:1 Languir model of simultaneous fitting of kₒₙ and koff was used for kinetics analysis.
Test [20] addresses B1. The description is as above.
Experimental: as §3
For test [21], the target named is T5, human PILRA R78 extracellular domain …. The test is described as above.
Experimental: as §3
Test [22] has as its target T7, human PILRA R78 on cells. Kind of test: flow cytometry on HEK293 PILRA R78 cells without sialidase treatment; without sialidase treatment.
Experimental: as §2
(§4) Following the same protocol, sialidase treatment was also performed on HEK cells expressing PILRA R78.
Test [23] addresses T6, human PILRA G78 on cells. Kind of test: flow cytometry on HEK293 PILRA G78 cells without sialidase treatment.
Experimental: as §2
Test [24] concerns the target T6, human PILRA G78 on cells. In words: flow cytometry on HEK293 cells expressing hPILRA G78. This is another data set of the same source.
Target sequence in this assay (Q9UKJ1 20-303 R78G limits assumed): as the sequence (Q9UKJ1 20-303 R78G limits assumed) above
Experimental: Parental HEK293 cells were labeled with NucBlue Live ReadyProbes Reagent for 30 mins. […] Antibody binding to the cells was detected by FACS and median fluorescence intensity (MFI) was derived from data analysis performed with the FLOJO software (FIGS. 1A-1C).
Test [25] addresses T7, human PILRA R78 on cells. In words: flow cytometry on HEK293 PILRA R78 cells with sialidase treatment; with sialidase treatment.
Experimental: as §2, §4
Test [26] concerns the target T4, cynomolgus monkey PILRA extracellular …. In words: SPR, Biacore 8K; antibody captured via anti-human Fab, recombinant ECD injected; 1:1 fit.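 Note: CM5 sensor chip, ECD analyte in threefold dilution series at 30 µL/min, 3 min association and 10 min dissociation, kon and koff fitted simultaneously.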
Experimental: as §3

T4 sequence (chain, as listed by the source limits assumed): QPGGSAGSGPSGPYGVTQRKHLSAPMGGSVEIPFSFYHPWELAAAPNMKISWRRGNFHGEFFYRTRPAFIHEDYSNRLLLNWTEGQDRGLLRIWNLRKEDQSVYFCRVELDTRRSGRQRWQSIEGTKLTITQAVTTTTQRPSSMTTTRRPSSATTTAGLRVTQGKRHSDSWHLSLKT
T7 sequence (Q9UKJ1 20-303 limits assumed): as the sequence (Q9UKJ1 20-303 R78G limits assumed) above, with G59R counted along it

Regarding B1, the binding result in the test with hPANP(76-178) and with hNPDC1(35-181) was “binds” throughout.

B2: Anti-PILRA antibody clone 12 (antibody, V domains shown)
VH: EVQLVQSGAEVKKPGASVKVSCKASGYTFTEYYMYWVRQAPGQGLELIGRIDPEDGGTDYIEKFKNRVTITADTSTSTAYLELSSLRSEDTAVYYCATTIRGTVFAFWGQGTLVTVSS
VL: DIQMTQSPSSLSASVGDRVTITCRASEDIFNGLAWYQQKPGKSPKLLIYNAKTLHTGVPSRFSGSGSGSDYTLTISSLQPEDFATYFCQQYYDYPLTFGQGTKVEIK
notes: Humanized; also called Ab.12
Consider B2, for which the Kd in [1] was determined as 263 nM; in test [2], 1.2 nM; in test [3], 1.8 nM; in [4], 17 nM; in [7], 1.58 nM. In addition, the half-maximal effective concentration (EC50) stood at 12 nM with human PILRA G78 on cells [5], 10.8 nM in the test with human PILRA G78 on cells [6], 12 nM with human PILRA G78 on cells [9] and 2.7 nM with human PILRA R78 on cells [11]. In addition, the “pSTAT3 S727 induction, EC50 (nM)” value was determined as 16 nM with human PILRA G78 on cells [8] and 7.41 nM with human PILRA R78 on cells [10]. Also, the “pSTAT3 S727 induction, Fold Over Background” value amounted to 31.6 fold in the test with human PILRA G78 on cells [8] and 21.4 fold with human PILRA R78 on cells [10]. The “pSTAT3 Y705 induction, EC50 (nM)” value with human PILRA G78 on cells [8] was 11.7 nM; with human PILRA R78 on cells [10] it was 4.53 nM. Also, the “pSTAT3 Y705 induction, Fold Over Background” value in the test with human PILRA G78 on cells [8] worked out at 31.3 fold; with human PILRA R78 on cells [10], 34.6 fold.

B3: Anti-PILRA antibody clone 38 (antibody, V domains shown)
VH: EVQLVQSGAEVKKPGASVKVSCKASGYTFTEYYMYWVRQAPGQGLELIGRIDPEDGGTDYVEKFKNRVTATADTSTSTAYLELSSLRSEDTAVYYCASTIRGTVFVYWGQGTLVTVSS
VL: DIQMTQSPSSLSASVGDRVTITCRPSEDIYNGLAWYQQKPGKAPKLLIYNANSLHTGVPSRFSGSGSGTDYTLTISSLQPEDFATYFCQQYYDYPLTFGQGTKVEIK
notes: Humanized
Turning to B3, the concentration giving a half-maximal response (EC50) with human PILRA G78 on cells [12] fell in the range of 13 to 14 nM; with human PILRA R78 on cells [13], 2 to 4 nM. The dissociation constant Kd in test [14] is 35 to 53 nM; in test [15], 0.3 to 0.7 nM; in test [16], 0.2 to 0.3 nM; in [17], 11 nM.

B4: Anti-PILRA antibody clone 39 (antibody, V domains shown)
VH: EVQLVQSGAEVKKPGASVKVSCKASGYTFTEYYMYWVRQAPGQGLELIGRIDPEDGGTDYIEKFKNRVTLTADTSTSTAYLELSSLRSEDTAVYYCATTIRGTVFAFWGQGTLVTVSS
VL: DIQMTQSPSSLSASVGDRVTITCRASEDIFNGLAWYQQKPGKSPKLLIYNAKTLHTGVPSRFSGSGSGSDYTLTISSLQPEDFATYFCQQYYDYPLTFGQGTKVEIK
notes: Humanized
Take B4: the half-maximal effective concentration (EC50) with human PILRA G78 on cells [12] lay within 7 to 8 nM; in the test with human PILRA R78 on cells [13] it was 1 to 2 nM. For the same molecule, the Kd was 38 to 56 nM in test [14], 0.2 to 0.4 nM in test [15], 0.4 nM in test [16] and 6.2 to 6.3 nM in [17].

B5: Anti-PILRA antibody clone 6 (antibody, V domains shown)
VH: EVQLQQSGPELQRPGASVKLSCKASGYTFTEYYMYWVKQRPKQGLELIGRIDPEDGGTDYIEKFKNKATLTADTSSNTAYMQLSSLTSEDTATYFCATTIRGTVFAFWGQGTLVTVSS
VL: DIQMTQSPASLSASLGETVTIECRASEDIFNGLAWYQQKPGKSPHLLIYNAKTLHTGVPSRFSGSGSGSQYSLKINSLQSEDVASYFCQQYYDYPLTFGSGTKLEIK
notes: the printed lines of the VL are out of order there
For B5, the EC50 was found to be 4.8 nM in the test with human PILRA G78 on cells [18]; 0.7 nM with human PILRA R78 on cells [22]; 7.6 nM with human PILRA G78 on cells [6]; 13 nM with human PILRA G78 on cells [23]; 2 nM in the test with human PILRA R78 on cells [11]; 9.3 nM with human PILRA G78 on cells [24]. A half-maximal response with human PILRA R78 on cells [25] (EC50) required 0.3 nM. The dissociation constant Kd came out at 90 nM in test [19], 0.72 nM in test [20] and 9.6 nM in test [21]. Moreover, the “pSTAT3 S727 induction, EC50 (nM)” value with human PILRA G78 on cells [8] is 16 nM; with human PILRA R78 on cells [10], 7.13 nM. Also, the figures for the “pSTAT3 Y705 induction, EC50 (nM)” value with human PILRA G78 on cells [8] and with human PILRA R78 on cells [10] were 12.1 nM and 3.18 nM, respectively.

B6: Anti-PILRA antibody clone 7 (antibody, V domains shown)
VH: EVQLQQSGPELQRPGASVKLSCKASGYTFTEYYMYWVKQRPKQGLELMGRIDPEDGGTDYVEKFKNKATLTADTSSNTAYMQLSSLTSEDTATYFCASTIRGTVFVYWGQGTLVTVSS
VL: DIQMTQSPASLSASLGETVTIECRPSEDIYNGLAWYQQKPGESPQLLIYNANSLHTGVPSRFSGSGSGTQYSLKINSLQSEDVASYFCQQYYDYPLTFGSGTKLEIK
With B6, the EC50 with human PILRA G78 on cells [18] worked out at 3.2 nM; with human PILRA R78 on cells [22], 0.7 nM; in the test with human PILRA G78 on cells [6] it was 10 nM; with human PILRA G78 on cells [23], 9.5 nM; in the test with human PILRA G78 on cells [9], 12.9 nM; with human PILRA R78 on cells [11] it was 2.5 nM. Also, the results for the EC50 in the test with human PILRA G78 on cells [24] and with human PILRA R78 on cells [25] were 13 nM and 0.3 nM, respectively. Also, the equilibrium dissociation constant (Kd) is 250 nM in test [19], 1.2 nM in [20], 4.8 nM in [26] and 17 nM in test [21]. For the same molecule, the “pSTAT3 S727 induction, EC50 (nM)” value is 18.6 nM with human PILRA G78 on cells [8] and 10.7 nM in the test with human PILRA R78 on cells [10]. Further, the “pSTAT3 S727 induction, Fold Over Background” value with human PILRA G78 on cells [8] was determined as 26.6 fold; with human PILRA R78 on cells [10], 28.9 fold. Moreover, the “pSTAT3 Y705 induction, EC50 (nM)” value with human PILRA G78 on cells [8] amounted to 13 nM; in the test with human PILRA R78 on cells [10] it was 5.38 nM. Also, the “pSTAT3 Y705 induction, Fold Over Background” value in the test with human PILRA G78 on cells [8] was 32.5 fold; with human PILRA R78 on cells [10], 38.3 fold.

One may read the Kd as the constant that tells how readily two partners part at equilibrium. As usually defined, the EC50 is the concentration at which the effect is half-maximal.
